{"source": "patent US11266715B2", "about": "“C3A receptor agonists for use against ischemic brain injury, stroke, traumatic brain injury, spinal cord injury and neurodegenerative disorders” (priority 2016, dated 2022)", "assay": "In vivo epifluorescent imaging of labelled C3a after intranasal administration", "design": "species or system mouse", "procedure": "C3a (Complement Technologies) was labelled with VivoTag XL 680 fluorescent tag (Perkin Elmer) and purified according to manufacturer's instructions. A minimum of 10 μg of labelled C3a (0.4 mg/kg of body weight) was determined in a pilot experiment to be necessary for reliable detection of the fluorescent signal in live animals due to its significant attenuation by skull bones. Mice received 20 μl of PBS or 65 μM C3a-VivoTag (0.48 mg/kg of body weight) intranasally as described above. One and three hours later, mice were anesthetized with 2% isoflurane and imaged in the IVIS Lumina III Bio-imaging platform (Caliper Technologies). After imaging, mice were deeply anesthetized with isoflurane and killed by cervical dislocation for ex vivo imaging. Brains were quickly dissected from the skull and imaged using the same fluorescent filter sets. All mice and brains were imaged simultaneously with the PBS-treated control (acting as the tissue autofluorescence reference) placed in the middle, to minimize the potential confound of weaker illumination toward the sides of the observation field. Acquired images were processed and analysed using Living Image software (Caliper Technologies). Epifluorescent signal intensities are presented as radiant efficiency [(photons/sec/cm^2/sr)/(μW/cm^2)] after subtraction of the residual tissue autofluorescence signal defined by the PBS control.", "data": [{"substance": "fluorescently labelled C3a: C3a (Complement Technologies) labelled with VivoTag XL 680 fluorescent tag", "values": [{"measurement": "time C3a is detectable in brain tissue after intranasal administration", "setting": "20 μl of 65 μM C3a-VivoTag (0.48 mg/kg) intranasal, imaged at 1 and 3 h, live and ex vivo", "result": "at least 3 hours"}, {"measurement": "delivery to the brain by intranasal administration", "setting": "epifluorescent imaging in live animals", "result": "can be delivered to the mouse brain through intranasal administration"}]}]}
